As usually defined, the Kd is the free concentration of one partner at which half of the binding sites on the other are occupied at equilibrium, for simple one-to-one binding. One may read the koff as the rate constant with which the complex falls apart. A high value points to a short-lived complex. As usually defined, the kon is a measure of how fast the partners come together. Lower therefore signals slow association.

The source of these data is patent US20260258149A1.

The target of the assay is BSA-STn. Description: SPR, BSA-STn-serine immobilised on the chip as ligand, antibody injected as analyte. A general note: Surface plasmon resonance follows binding to a sensor surface in real time, without labels.

B1: humanized anti-STn antibody clone V3 (antibody, V domains shown)
VH: QVQLQESGPGLVKPSQTLSLTCSVIGYSITSGYYWNWIRQPPGKGLEWIGSINYDGSNIYNPSLKDRVTISRDTSKNQFSLKLSSVTAADTAVYYCARGGDYWGQGTTVTVSS
VL: EIVLTQSPATLSLSPGERATLSCSASSSVSYMHWFQQKPGQAPRRWIYDTSKRATGVPARFSGSGSGTDYTLTISSLEPEDFAAYYCQQWSSDPPMLTFGGGTKLEIK
B1: the Kd was 33.2 nM, the off-rate constant (koff) came out at 0.00568 s⁻¹ and the kon was found to be 171000 M⁻¹ s⁻¹.

B2: humanized anti-STn antibody clone V1 (antibody, V domains shown)
VH: QVQLQESGPGLVKPSQTLSLTCTVIGYSITSGYYWNWIRQPPGKGLEWIGSINYDGSNIYNPSLKSRVTISRDTSKNQFSLKLSSVTAADTAVYYCARGGDYWGQGTTVTVSS
VL: EIVLTQSPATLSLSPGERATLSCSASSSVSYMHWFQQKPGQAPRRWIYDTSKRATGVPARFSGSGSGTDYTLTISSLEPEDFAAYYCQQWSSDPPMLTFGGGTKLEIK
B2 returned an equilibrium dissociation constant (Kd) of 31.7 nM, an off-rate (koff) of 0.00553 s⁻¹ and an association rate constant (kon) of 174000 M⁻¹ s⁻¹.

B3: humanized anti-STn antibody clone V2 (antibody, V domains shown)
VH: QVQLQESGPGLVKPSQTLSLTCSVIGYSITSGYYWNWIRQPPGKGLEWIGSINYDGSNIYNPSLKDRVTISRDTSKNQFSLKLSSVTAADTAVYYCARGGDYWGQGTTVTVSS
VL: DIVLTQSPAILSLSPGERATLSCSASSSVSYMHWFQQKSGQAPKRWIYDTSKLASGVPARFSGSGSGTDYTLTISSLEAEDFAAYYCQQWSSDPPMLTFGGGTKLEIK
Molecule B3 showed a Kd of 39.4 nM, a koff of 0.00519 s⁻¹ and a kon of 132000 M⁻¹ s⁻¹.
